Measurements taken from patent publication US20170189511A1.

Molecular target: HLA-A*24 (peptide-receptive MHC class I monomer of the UV-ligand exchange assay) (human)
Assay: UV-ligand exchange with anti-b2m ELISA

Row | peptide exchange yield [%] | Binder
1 | 50 to 75 | RYAEEVGIF [Peptide SEQ ID NO: 199 (…)]
2 | 50 to 75 | TFSVSSHLF [Peptide SEQ ID NO: 222 (…)]
3 | 50 to 75 | QYLENLEKL [Peptide SEQ ID NO: 224 (…)]
4 | > 75 | VYQGHTALL [Peptide SEQ ID NO: 277 (…)]
5 | 50 to 75 | EYSLFPGQVVI [Peptide SEQ ID NO: 197 (…)]
6 | > 75 | LYHDIFSRL [Peptide SEQ ID NO: 271 (…)]
7 | > 75 | HYSQELSLLYL [Peptide SEQ ID NO: 158 (…)]
8 | 50 to 75 | YFIDSTNLKTHF [Peptide SEQ ID NO: 269 (…)]
9 | 50 to 75 | KFSSFSLFF [Peptide SEQ ID NO: 164 (…)]
10 | 50 to 75 | YYVYIMNHL [Peptide SEQ ID NO: 225 (…)]
11 | 50 to 75 | EYPLVINTL [Peptide SEQ ID NO: 219 (…)]
12 | 50 to 75 | QYLGQIQHI [Peptide SEQ ID NO: 268 (…)]
13 | > 75 | RYPDNLKHLYL [Peptide SEQ ID NO: 280 (…)]
14 | 50 to 75 | RYSTGLAGNLL [Peptide SEQ ID NO: 221 (…)]
15 | > 75 | LYNKGFIYL [Peptide SEQ ID NO: 159 (…)]
16 | > 75 | TYELRYFQI [Peptide SEQ ID NO: 204 (…)]
17 | > 75 | QYLQDAYSF [Peptide SEQ ID NO: 272 (…)]
18 | 50 to 75 | EYINQGDLHEF [Peptide SEQ ID NO: 275 (…)]
19 | 50 to 75 | VYVSDIQEL [Peptide SEQ ID NO: 288 (…)]
20 | > 75 | YYVESGKLF [Peptide SEQ ID NO: 166 (…)]
21 | 50 to 75 | VFTRVSSFL [Peptide SEQ ID NO: 162 (…)]

Row | peptide exchange yield [%] | Binder
22 | > 75 | AYLHSHALI [Peptide SEQ ID NO: 274 (…)]
23 | 50 to 75 | KYIPYKYVI [Peptide SEQ ID NO: 223 (…)]
24 | 50 to 75 | HYPPVQVLF [Peptide SEQ ID NO: 285 (…)]
25 | > 75 | TYSVSFPMF [Peptide SEQ ID NO: 195 (…)]
26 | 50 to 75 | NYYEVHKELF [Peptide SEQ ID NO: 270 (…)]
27 | 20 to 49 | PYRLIFEKF [Peptide SEQ ID NO: 281 (…)]
28 | 20 to 49 | VYEDQVGKF [Peptide SEQ ID NO: 170 (…)]
29 | 50 to 75 | AYTLIAPNI [Peptide SEQ ID NO: 169 (…)]
30 | > 75 | VYGFQWRHF [Peptide SEQ ID NO: 276 (…)]
31 | > 75 | YYEVHKELF [Peptide SEQ ID NO: 175 (…)]
32 | 50 to 75 | LFIPSSKLLFL [Peptide SEQ ID NO: 171 (…)]
33 | > 75 | DYLKGLASF [Peptide SEQ ID NO: 163 (…)]
34 | > 75 | RYISDQLFTNF [Peptide SEQ ID NO: 278 (…)]
35 | 50 to 75 | YYGPSLFLL [Peptide SEQ ID NO: 200 (…)]
36 | 50 to 75 | RYLNKAFHI [Peptide SEQ ID NO: 284 (…)]
37 | > 75 | VYWDSAGAAHF [Peptide SEQ ID NO: 202 (…)]
38 | 50 to 75 | TYKDEGNDYF [Peptide SEQ ID NO: 209 (…)]
39 | > 75 | VYTLDIPVL [Peptide SEQ ID NO: 160 (…)]
40 | > 75 | KYQDILETI [Peptide SEQ ID NO: 168 (…)]
41 | > 75 | NYINRILKL [Peptide SEQ ID NO: 167 (…)]
42 | > 75 | KFVDSTFYL [Peptide SEQ ID NO: 282 (…)]

Row | peptide exchange yield [%] | Binder
43 | > 75 | KYTSWYVAL [Peptide SEQ ID NO: 228 (…)]
44 | > 75 | DYTTWTALL [Peptide SEQ ID NO: 165 (…)]
45 | > 75 | KYMVYPQTF [Peptide SEQ ID NO: 267 (…)]
46 | 50 to 75 | LYIDRPLPYL [Peptide SEQ ID NO: 196 (…)]
47 | 50 to 75 | VYRDETGELF [Peptide SEQ ID NO: 226 (…)]
48 | 20 to 49 | RYPDNLKHL [Peptide SEQ ID NO: 286 (…)]
49 | 50 to 75 | IYATEAHVF [Peptide SEQ ID NO: 201 (…)]
50 | 50 to 75 | YYKSTSSAF [Peptide SEQ ID NO: 218 (…)]
51 | 20 to 49 | AYVVFVSTL [Peptide SEQ ID NO: 207 (…)]
52 | 50 to 75 | TYGDAGLTYTF [Peptide SEQ ID NO: 283 (…)]
53 | 50 to 75 | VYVGGGQIIHL [Peptide SEQ ID NO: 174 (…)]
54 | > 75 | IYSWILDHF [Peptide SEQ ID NO: 173 (…)]
55 | > 75 | IYLVSIPEL [Peptide SEQ ID NO: 161 (…)]
56 | 50 to 75 | TYIESASEL [Peptide SEQ ID NO: 279 (…)]
57 | 50 to 75 | TYIKPISKL [Peptide SEQ ID NO: 273 (…)]
58 | 50 to 75 | EYNQWFTKL [Peptide SEQ ID NO: 176 (…)]
59 | > 75 | KYPVEWAKF [Peptide SEQ ID NO: 289 (…)]
60 | > 75 | IFLDYEAGTLSF [Peptide SEQ ID NO: 227 (…)]
61 | 50 to 75 | LYITEPKTI [Peptide SEQ ID NO: 287 (…)]
